Data on two molecules can be found in publication PMC5600724.

The assay deals with recombinant Plasmodium vivax apical membrane antigen 1 ectodomain (rPvAMA1) (Plasmodium vivax). Description: ELISA; phage ELISA: wells coated with rPvAMA1 (100 ug/ml in 0.1 M NaHCO3, pH 8.6), blocked with BSA; ~10^9 phage in TBST, 2 h at room temperature; HRP anti-M13 antibody, ABTS, A405; fold = absorbance on target / absorbance on BSA-blocked well. A general note: ELISA stands for enzyme-linked immunosorbent assay.

As for WHWSWWNPNQLT [PdV2 phage-displayed dodecapeptide], the fold of binding signal (A405 on rPvAMA1 over A405 on BSA) turned out to be 3.5 fold. TSVSYINNRHNL [PdV3 phage-displayed dodecapeptide]: the fold of binding signal (A405 on rPvAMA1 over A405 on BSA) is 3.1 fold.
